Reference: the DeepSol protein solubility set

Assay: soluble on expression in E. coli; label from the status in PepcDB or PDB records

Sequence	soluble on expression in E. coli
MTSVTDRSAHSAERSTEHTIDIHTTAGKLAELHKRREESLHPVGEDAVEKVHAKGKLTARERIYALLDEDSFVELDALAKHRSTNFNLGEKRPLGDGVVTGYGTIDGRDVCIFSQDATVFGGSLGEVYGEKIVKVQELAIKTGRPLIGINDGAGARIQEGVVSLGLYSRIFRNNILASGVIPQISLIMGAAAGGHVYSPALTDFVIMVDQTSQMFITGPDVIKTVTGEEVTMEELGGAHTHMAKSGTAHYAASGEQDAFDYVRELLSYLPPNNSTDAPRYQAAAPTGPIEENLTDEDLELDTLIPDSPNQPYDMHEVITRLLDDEFLEIQAGYAQNIVVGFGRIDGRPVGIVANQPTHFAGCLDINASEKAARFVRTCDCFNIPIVMLVDVPGFLPGTDQEYNGIIRRGAKLLYAYGEATVPKITVITRKAYGGAYCVMGSKDMGCDVNLAWPTAQIAVMGASGAVGFVYRQQLAEAAANGEDIDKLRLRLQQEYEDTLVNPYVAAERGYVDAVIPPSHTRGYIGTALRLLERKIAQLPPKKHGNVPL	soluble
MIHIDKNVRTSGAYVMYKNSFVFQVGPTSKGDTLGVVRLGGHKEADETAVETAKREVEEEASIDITILNSPTTYYKEYWNAQSKKLKVENKVNPILIIDSPDESLSIMYVAYSKMQPKPSSETKGLLLLSLNDIELICTGKITLNDYINQGGVSILKEKMDKELILQPFPQLMFLSELLKEDPVLLQQFLNLEHHHHHH	soluble
MTAPKVFVSHASEDKARFVVDFARRLRENGVDAWLDQWEMKPGDSLVDKIFEEGLREARAVVIVLSATSVRKPWVREELNASVVNRISRGTKLIPVVIDDCDVPEALRSTVLEHHHHHH	not soluble
MAGASVKVAVRVRPFNSREMSRDSKCIIQMSGSTTTIVNPKQPKETPKSFSFDYSYWSHTSPEDINYASQKQVYRDIGEEMLQHAFEGYNVCIFAYGQTGAGKSYTMMGKQEKDQQGIIPQLCEDLFSRINDTTNDNMSYSVEVSYMEIYCERVRDLLNPKNKGNLRVREHPLLGPYVEDLSKLAVTSYNDIQDLMDSGNKPRTVAATNMNETSSRSHAVFNIIFTQKRHDAETNITTEKVSKISLVDLAGSERADSTGAKGTRLKEGANINKSLTTLGKVISALAEMDSGPNKNKKKKKTDFIPYRDSVLTWLLRENLGGNSRTAMVAALSPADINYDETLSTLRYADRAKQIRNTVSVNHHHHH	soluble
MKRLMFIGPSQCGKTSLTQSLRGEALHYKKTQAIEWSPMAIDTPGEYLENRCLYSALLTSACEADVIALVLNADAQWSPFSPGFTAPMNRPTIGLVTKADLAEPQRISLVAEWLTQAGAQQIFITSALNNSGLDAVLDFLNSKEPLCLTKLEHHHHHH	soluble
MDREHLIKLACARNPDLEMCEQLKARNVRDSNSGKLEMIEPPPLPPSMKAAKRRDIHAAHDENSEQKPVRYRALSAEEVRILQTKCARVGPLVQKHCQPKKTSARNAGRCAAYFRDCAQFIEKGDPLGAIANSFDSGVNINLANVDVKGIPYYPLNEEGAVGVGVGLGIPFGAWGGGASTSVGVRDYFHGDQEVGANWYDGKYGYKNHWNIPLVQSLGVEGGQHNTVSFPLHGKDAGNLKVDNGYGVGGYYQQNDHVGVNYKEGDVRHTFGVSSPFVGAGFQTGQAVAFPGLDVWERALG	not soluble
MSLGMAAWDRNSINPLQAYVYKTSKLPFYDENLHNLAEKIAPHCLLAHLRGVSYHDKQVVTDQNVHPFLYPVTSIALAHNGMLHNFETMRYDLLKYVKTEYRKYIKGTTDSEWIYAVFLSQLENPKGHFDASEIINAVIATLKILKTVRQQNNIVINSPVNLFLTNGDFIAATRFCLDYGWKPKDATQSTHFTYHSLWYTYGERYGFYENEYKMKGGTINSSIIIASEPLTENTTTWLEVPEYTLIFANQVDGEIKITSQDINEGHHHHHH	not soluble
MAQPIVVAALYKFVTLEDYVNLREPLLQAMLDNGIKGTLLIAEEGINGTVSGSREGIDGLLAWLKNDPRMVDIDHKESYCDEQPFYRTKVKLKKEIVTLGVPGVDPNKKVGTYVEPQDWNALISDPEVLLIDTRNDYEVSIGTFEGAIDPKTTSFREFPDYIKAHFDPSKHKKVAMFCTGGIRCEKASSYMLSEGFDEVFHLKGGILKYLEEVPQQESKWQGDCFVFDNRVTVRHDLSEGDYDQCHACRTPVSVEDRASEHYVPGISCPHCWDKLSEKTRRSAIDRQKQIELAKARNMPHPIGYNYKQSSSEALEHHHHHH	not soluble
MGSDKIHHHHHHMDLITKQDGTTLHYSTMGQGYPVVLVHTAFDNYAVFNDLAKVLAKSFQVVLIDLRGHGYSDKPRNIEFYDFADDIKFLLDAIYIDEAAFIGHEMGALIAADMSVRNPGYISSITLVNPTSIEGELPEERLFRKYAHKIRNWEDDKQEKFLDKRRYYKARKMNKFLKHVVDTNSISTKEEIQAVKDVFKSEGIADVFKHVQVPTLIVAGEHGERTTTLEAKEVADLIQHCEFNVYQHSSAYPFVEEQAQFTQETTNFIQQHAPK	not soluble
MGSDKIHHHHHHMKFLFIVQGEGRGHLTQAITLEEMLLRNGHEVVEVLVGESSSRILPGFFNRNIQAPVKRFISPNFLPAADNKRANLKKSFTYNLLRIPEYFRSMCYINQRIKETGAEVVINFYELLTGLTYALFRPSVPYVCVGHQYLFLHQNFEFPDKNSFELRMLRFFTKMTAVRSSKKLALSFNDMEPDRGQQVVVVPPLIRQEVTAIQPEEGNYIHGYMVNSGFADSVEEFHTIYPEVPLRFFWDKADAEEVTRIDETLSFYQIDDVKFLNGMAGCRAYATTAGFESICEAMYLGKPVLMVPAHIEQDCNAHDAMRAGAGIISDSFDLKPLLRFAGTYSPNRTFVRWVRSGERRIILELEKLAASQSAITSIPTFTNYLPI	not soluble
MGSDKIHHHHHHMSELKLPKDDRSIEVYRLSGTPVAVEKRSAADFNRVAFAAAHVVADPFADNDPWLTPAIDWEATLRFRHRLWDLGLGVAEAMDTAQRGMGLAWPQAQELISRSLKEAASRKDALIACGVGTDHLDSGGYDLNQIIDSYLEQLDFVQGEGGRVILMASRALAAAARSPDDYLKAYARVLSRAEQKVVIHWLGEMFDPALKGYWGSGDHMAAMETCLAMIEENAEKIDGIKISLLSKDKEIVMRRRLPAGVRMYTGDDFNYAELIAGDEQGHSDALLGIFDAIAPAASKALASLKRGADNEFFDILEPTVALSRHIFKAPTRFYKTGVVFLAYLNGLQDHFTMVGGQESTRSTQHFTELFRLADKANVLAEPDLATHRMKAFLAVRGIG	not soluble
MKFSSLLQDTAAIDVFIKILTSVSKLSKKRCCVKIEKNALNFICCSGLHDGGSWFSLSIPYSSQIFRKFDMVGMNPRNEEQNLIYFELEIDSLVRVLPGGHCYLKLKLSKSQKDEPMLSVEVRNPEADIVSHQIPITIILSKYWNSYSRPSIGHRKMSISMPPPKMMSRFLHVFKNMNTRVVKLTASTSGDLRISTKIETGEIDVSFSDLQTNPSETDSQEDTAKVQLMIRNISPLFQSFANTRTRAKMNIISNRMAEFNFHNEDCVLSYIVGNVSD	not soluble
GSMPTTCGFPNCKFRSRYRGLEDNRHFYRIPKRPLILRQRWLTAIGRTEETVVSQLRICSAHFEGGEKKEGDIPVPDPTVDKQIKIELPPK	soluble
MGSDKIHHHHHHMATFTRKAIMQTFLHILKNKPLDRITVKDICEQCEINRNTFYYYFKDIYDVLEAIFEDEVRLVMDEAKEGVTFHDAYARVAALILNNREAIMHIYASENGRVLRTYLDAVVTQVVRRFVLEKAEGYSLDDSDIAFITAFYSNGIVGSTIKWIERGSMMSRLPENITANGVGLSKSQYNRDIVKRIGDSFDATIYDMIECCL	not soluble
SGLVPRGSHMRLRPLGIEGVWEITPEQRADPRGVFLDWYHVDRFAEAIGRPLRLAQANLSVSVRGVVRGIHFVDVPPGQAKYVTCVRGAVFDVVVDLRVGSPTYGCWEGTRLDDVSRRAVYLSEGIGHGFCAISDEATLCYLSSGTYDPATEHGVHPLDPELAIDWPTGTPLLSPRDQDALLLAEARDAGLLPTYATCQAVTVPSPAPGSVGDPGP	soluble
MSLAQTNPNSKGDQQKMINIAHRGASGHAPENTMAAFQKGFDMKVDYIEFDVHMTKDGELVLMHDLTVDRTTNGHGYVSDLTLDEIKQFDAGSWFHEDFVGEKVPTFEETLDVFRGKVGLLIELKSPERYPGMEEKVAEALKERKMDRSSNHKVIIQSFNHESMKKSKELLPHIPHGVLAGPSWANVTDEQLEEFSTYADYFNPNMTIVTPELVSRIHAVGMKIFPYTSRTQEQANRLFELKVDGIITDFPEHVYFHPVKNQEGHHHHHH	not soluble
MSLARVFNACLFFYKIGGKMAMGEFDLIKRYFQQQILVDDSVQLSIGDDCALVSVPENYQLAITTDTMVENTHFLPTISPEDLAYKAVATNLSDLAAMGAQPKWVSLALTLPNVDENWISTFSQSLLHTLKQYNVTLIGGDTTKGNLSITITAQGFVEKNKGICRHKAQIGDLIYVSSTLGDSAAGLTQILLGKSAVDSDDVFLQQRHLRPTPRIELGQALIGIAHVAIDLSDGLISDLGHILERSQCSAEVELTALPLSSSILNKYDRTQAEQFALSGGEDYELCFTIPPEYKDELELRLKKLNVPCTCIGKINEKCGDFSPRFLRDGKPVNITFSSGFDHFKESKEGHHHHHH	soluble
SLDMIRIDSQTNSSHLKDEFQTLNSVTPRLQAEDCSIACLPRNHDKNRFMDMLPPDRCLPFLITIDGESSNYINAALMDSYRQPAAFIVTQYPLPNTVKDFWRLVYDYGCTSIVMLNEVDLSQGCPQYWPEEGMLRYGPIQVECMSCSMDCDVINRIFRICNLTRPQEGYLMVQQFQYLGWASHREVPGSKRSFLKLILQVEKWQEECEEGEGRTIIHCLNGGGRSGMFCAIGIVVEMVKRQNVVDVFHAVKTLRNSKPNMVEAPEQYRFCYDVALEYLESS	not soluble
SDITLESLRHIIAQVLPHRDPALVFKDLNVVSMLQEFWESKQQQKAAFPSEGVVVYESLPAPGPPFVSYVTLPGGSCFGNFQCCLSRAEARRDAAKVALINSLFNELPSRRITKEFIMESVQEAVASTSGTLDDADDPSTSVGAYHYMLESNMGKTMLEFQELMTIFQLLHWNGSLKALRETKCSRQEVISYYSQYSLDEKMRSHMALDWIMKERDSPGIVSQELRMALRQLEEARKAGQELRFYKEKKEILSLALTQICSDPDTSSPSDDQLSLTALCGYH	soluble
MSLEDTGIFGYSRAGSINGIEYPYVINVKTDFVENDGKLNFMGEEIDRMLIYPSQIKQEIVETESFVIIPNGAELIRRPKNLVSIIMNVHEKYGFSKLIYLSGLPDPYSIPALVYLGVSFFDDAYFRIEGINGLQFTQYGIRRTNEDQTENNMNFVRSMLNVIKDSIMNGTLRDIVEKNLVSSKAAEMIRIADYSYYEEYEKIFPSRTPYIKANTIEDLYRPDIVRYREYVANLYEKPDLDVAVILPCSAKKPYSKSKSHQKVINSLSDLRKYIHEIIVTSPLGVVPRDLEETYPAMFYDIPVIGLWYEDEKVMMKRMLRSYMSRNKYRKVIAFVPDDLEFITDSIPYDTEFIEFKSSNLSKLRQTVEKEKFASKSIDQKKAKYESVLKYQFGSWILPLINGYSLRRNYNQDMIVKDGKILFVYNERLGKFTINKASAEMFVKNGRFLVEIDDFKPTSNVYAMGVRDATDDIRQEDEVVLVHSGEIRGVGIAKMNARAMMELKKGIAVKVREGHHHHHH	soluble
